Common to all, as to assay: co-IP
Assay [1] deals with Mcm3 (S. cerevisiae, UniProt P24279 1-971).
The target of assay [2] is Origin Recognition Complex (ORC) (S. cerevisiae, UniProt P54784;P32833;P54790;P54791;P50874;P38826).
For assay [3], the target named is T1, Mcm4 (S. cerevisiae, UniProt P30665 1-933).
T1 sequence: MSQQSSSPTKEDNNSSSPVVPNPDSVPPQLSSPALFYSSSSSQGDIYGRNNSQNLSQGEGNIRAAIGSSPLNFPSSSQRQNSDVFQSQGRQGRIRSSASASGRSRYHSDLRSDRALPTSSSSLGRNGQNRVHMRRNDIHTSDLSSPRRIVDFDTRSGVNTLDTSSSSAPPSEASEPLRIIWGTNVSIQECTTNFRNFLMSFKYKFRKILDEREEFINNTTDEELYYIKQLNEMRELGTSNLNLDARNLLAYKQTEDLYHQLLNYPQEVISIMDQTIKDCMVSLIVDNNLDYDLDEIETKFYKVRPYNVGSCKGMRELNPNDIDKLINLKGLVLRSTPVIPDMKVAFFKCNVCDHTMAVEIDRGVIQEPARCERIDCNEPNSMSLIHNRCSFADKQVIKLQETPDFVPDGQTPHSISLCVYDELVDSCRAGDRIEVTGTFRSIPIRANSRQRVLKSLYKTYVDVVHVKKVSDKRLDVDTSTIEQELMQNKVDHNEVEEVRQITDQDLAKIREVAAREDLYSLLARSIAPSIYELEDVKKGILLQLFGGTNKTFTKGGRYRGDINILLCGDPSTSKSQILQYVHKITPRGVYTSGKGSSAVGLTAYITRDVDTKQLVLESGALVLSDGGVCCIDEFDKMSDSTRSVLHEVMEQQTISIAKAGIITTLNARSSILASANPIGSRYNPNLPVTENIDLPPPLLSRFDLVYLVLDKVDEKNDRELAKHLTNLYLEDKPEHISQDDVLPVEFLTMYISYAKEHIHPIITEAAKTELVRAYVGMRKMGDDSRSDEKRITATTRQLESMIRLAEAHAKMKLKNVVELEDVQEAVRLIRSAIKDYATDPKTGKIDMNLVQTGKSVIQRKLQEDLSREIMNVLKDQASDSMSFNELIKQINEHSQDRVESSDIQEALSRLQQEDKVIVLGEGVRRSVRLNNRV

Assay [4] deals with MCM2-7-ΔC3 (S. cerevisiae, UniProt P29469;P24279;P30665;P29496;P53091;P38132).
MCM2-7-ΔC3, sequence (P24279 1-739, stated change not applied, chain 2 of 4): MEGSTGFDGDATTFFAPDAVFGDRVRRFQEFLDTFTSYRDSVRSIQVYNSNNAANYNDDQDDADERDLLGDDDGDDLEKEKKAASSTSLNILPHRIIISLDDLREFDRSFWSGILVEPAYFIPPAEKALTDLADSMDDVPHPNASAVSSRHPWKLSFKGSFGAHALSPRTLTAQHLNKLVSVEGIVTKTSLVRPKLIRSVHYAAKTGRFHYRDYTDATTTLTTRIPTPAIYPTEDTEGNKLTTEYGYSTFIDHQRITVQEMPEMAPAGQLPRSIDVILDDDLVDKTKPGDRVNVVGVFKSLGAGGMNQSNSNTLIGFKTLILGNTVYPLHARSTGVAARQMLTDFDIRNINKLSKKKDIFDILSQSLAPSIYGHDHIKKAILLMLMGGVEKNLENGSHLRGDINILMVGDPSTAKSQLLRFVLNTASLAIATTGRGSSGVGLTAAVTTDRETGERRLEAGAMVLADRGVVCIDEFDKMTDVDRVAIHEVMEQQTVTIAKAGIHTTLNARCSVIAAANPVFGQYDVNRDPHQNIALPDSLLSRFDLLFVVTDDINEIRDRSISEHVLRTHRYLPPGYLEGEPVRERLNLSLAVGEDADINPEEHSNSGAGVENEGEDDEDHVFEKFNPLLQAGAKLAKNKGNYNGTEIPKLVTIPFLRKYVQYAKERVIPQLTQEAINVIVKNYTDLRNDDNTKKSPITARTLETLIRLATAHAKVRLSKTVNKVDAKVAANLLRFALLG
MCM2-7-ΔC3, sequence (P29496 whole entry, stated change not applied, chain 4 of 4): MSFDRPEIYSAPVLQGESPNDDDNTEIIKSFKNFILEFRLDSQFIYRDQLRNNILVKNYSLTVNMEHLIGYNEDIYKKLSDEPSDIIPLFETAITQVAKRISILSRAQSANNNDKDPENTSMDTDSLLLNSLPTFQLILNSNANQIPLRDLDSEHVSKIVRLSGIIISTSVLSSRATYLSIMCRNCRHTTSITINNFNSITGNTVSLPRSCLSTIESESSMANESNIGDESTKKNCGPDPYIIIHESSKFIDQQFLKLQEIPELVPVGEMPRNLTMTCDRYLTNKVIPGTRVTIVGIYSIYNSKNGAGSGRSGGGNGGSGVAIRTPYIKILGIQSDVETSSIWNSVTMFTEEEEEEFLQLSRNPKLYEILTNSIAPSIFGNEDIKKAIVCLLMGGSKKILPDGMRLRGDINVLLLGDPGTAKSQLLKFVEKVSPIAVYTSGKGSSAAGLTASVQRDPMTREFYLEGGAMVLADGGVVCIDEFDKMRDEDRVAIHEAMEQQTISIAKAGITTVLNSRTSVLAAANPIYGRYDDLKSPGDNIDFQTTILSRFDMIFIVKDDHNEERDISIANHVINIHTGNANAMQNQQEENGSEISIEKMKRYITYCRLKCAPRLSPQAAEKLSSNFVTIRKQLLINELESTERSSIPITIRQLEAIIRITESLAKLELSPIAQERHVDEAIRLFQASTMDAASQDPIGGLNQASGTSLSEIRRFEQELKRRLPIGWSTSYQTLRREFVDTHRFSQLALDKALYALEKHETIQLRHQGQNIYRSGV
MCM2-7-ΔC3, sequence (P53091 whole entry, stated change not applied, chain 5 of 4): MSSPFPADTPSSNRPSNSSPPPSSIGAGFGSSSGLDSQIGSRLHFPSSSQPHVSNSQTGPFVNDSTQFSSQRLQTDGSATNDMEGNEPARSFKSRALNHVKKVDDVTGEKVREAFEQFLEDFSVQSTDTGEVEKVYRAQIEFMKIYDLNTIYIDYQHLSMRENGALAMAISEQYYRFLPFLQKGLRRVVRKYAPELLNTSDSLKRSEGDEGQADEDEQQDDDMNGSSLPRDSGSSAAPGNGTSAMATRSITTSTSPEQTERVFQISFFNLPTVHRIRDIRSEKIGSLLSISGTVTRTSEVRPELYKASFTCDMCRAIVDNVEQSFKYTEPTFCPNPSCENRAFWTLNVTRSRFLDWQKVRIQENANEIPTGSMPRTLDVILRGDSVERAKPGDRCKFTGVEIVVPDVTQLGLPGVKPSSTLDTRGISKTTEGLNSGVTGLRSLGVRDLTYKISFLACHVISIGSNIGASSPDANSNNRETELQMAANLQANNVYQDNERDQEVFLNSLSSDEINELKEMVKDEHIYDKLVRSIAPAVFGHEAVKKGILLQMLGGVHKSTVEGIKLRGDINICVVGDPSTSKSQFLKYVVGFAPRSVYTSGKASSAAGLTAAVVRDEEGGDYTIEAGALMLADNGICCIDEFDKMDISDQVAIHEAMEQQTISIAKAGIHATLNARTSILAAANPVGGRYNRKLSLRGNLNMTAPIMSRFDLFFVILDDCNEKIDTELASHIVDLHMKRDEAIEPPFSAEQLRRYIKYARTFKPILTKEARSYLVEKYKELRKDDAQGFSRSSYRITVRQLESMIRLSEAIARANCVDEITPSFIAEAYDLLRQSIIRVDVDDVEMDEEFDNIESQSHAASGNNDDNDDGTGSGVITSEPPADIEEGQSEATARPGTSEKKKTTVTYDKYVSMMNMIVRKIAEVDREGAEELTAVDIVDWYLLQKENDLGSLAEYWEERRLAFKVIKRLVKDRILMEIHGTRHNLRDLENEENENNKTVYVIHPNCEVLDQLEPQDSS
MCM2-7-ΔC3, sequence (P38132 whole entry, stated change not applied, chain 6 of 4): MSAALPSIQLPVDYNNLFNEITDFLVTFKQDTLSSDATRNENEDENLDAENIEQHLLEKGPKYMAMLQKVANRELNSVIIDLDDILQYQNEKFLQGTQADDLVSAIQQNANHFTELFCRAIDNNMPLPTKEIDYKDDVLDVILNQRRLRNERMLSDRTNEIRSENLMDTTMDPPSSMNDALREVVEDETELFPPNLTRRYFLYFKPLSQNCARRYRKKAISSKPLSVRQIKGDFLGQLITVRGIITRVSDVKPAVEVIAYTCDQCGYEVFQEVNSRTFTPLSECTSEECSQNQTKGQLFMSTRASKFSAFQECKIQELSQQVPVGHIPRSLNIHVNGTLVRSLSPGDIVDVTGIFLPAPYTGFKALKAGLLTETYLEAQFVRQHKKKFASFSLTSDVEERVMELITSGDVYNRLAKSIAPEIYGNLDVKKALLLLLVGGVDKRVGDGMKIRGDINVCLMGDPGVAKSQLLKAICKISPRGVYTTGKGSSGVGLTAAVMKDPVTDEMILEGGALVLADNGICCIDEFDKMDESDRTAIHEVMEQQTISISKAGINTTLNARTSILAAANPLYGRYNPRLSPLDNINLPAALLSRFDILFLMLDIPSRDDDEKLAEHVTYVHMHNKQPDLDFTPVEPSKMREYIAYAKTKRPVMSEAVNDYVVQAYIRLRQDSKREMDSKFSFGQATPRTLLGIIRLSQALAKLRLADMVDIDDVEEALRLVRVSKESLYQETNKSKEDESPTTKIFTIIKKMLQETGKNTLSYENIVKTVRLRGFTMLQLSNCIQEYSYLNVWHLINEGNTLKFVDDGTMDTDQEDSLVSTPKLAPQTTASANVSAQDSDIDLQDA
The target of assay [5] is MCM2-7 (S. cerevisiae, UniProt P29469;P24279;P30665;P29496;P53091;P38132).
MCM2-7, sequence (P24279 whole entry, chain 2 of 4): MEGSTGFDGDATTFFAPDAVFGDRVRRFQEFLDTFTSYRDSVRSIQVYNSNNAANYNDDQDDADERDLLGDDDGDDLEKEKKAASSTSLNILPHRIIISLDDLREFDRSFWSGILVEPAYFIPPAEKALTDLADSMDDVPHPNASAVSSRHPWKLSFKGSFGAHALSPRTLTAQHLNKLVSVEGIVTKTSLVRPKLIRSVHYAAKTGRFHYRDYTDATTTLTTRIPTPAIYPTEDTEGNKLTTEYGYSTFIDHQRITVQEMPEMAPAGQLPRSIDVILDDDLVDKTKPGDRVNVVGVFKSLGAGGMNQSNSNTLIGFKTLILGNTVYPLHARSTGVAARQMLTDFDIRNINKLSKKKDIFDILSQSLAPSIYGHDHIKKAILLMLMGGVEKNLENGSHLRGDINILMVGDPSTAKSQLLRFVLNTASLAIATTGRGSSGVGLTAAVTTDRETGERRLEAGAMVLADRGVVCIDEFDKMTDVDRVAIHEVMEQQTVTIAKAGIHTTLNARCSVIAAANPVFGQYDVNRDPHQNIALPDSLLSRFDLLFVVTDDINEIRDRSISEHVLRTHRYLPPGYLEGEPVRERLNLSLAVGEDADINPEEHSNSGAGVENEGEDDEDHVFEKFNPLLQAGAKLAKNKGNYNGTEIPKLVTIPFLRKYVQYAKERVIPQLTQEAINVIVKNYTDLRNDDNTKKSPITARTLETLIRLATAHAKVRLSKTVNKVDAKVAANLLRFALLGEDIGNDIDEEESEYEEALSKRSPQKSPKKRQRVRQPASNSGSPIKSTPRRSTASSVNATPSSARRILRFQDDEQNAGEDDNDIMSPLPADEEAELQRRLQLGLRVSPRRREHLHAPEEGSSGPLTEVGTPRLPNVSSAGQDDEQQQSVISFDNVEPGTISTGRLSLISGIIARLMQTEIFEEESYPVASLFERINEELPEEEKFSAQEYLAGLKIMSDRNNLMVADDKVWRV
MCM2-7, sequence (P29496 whole entry, chain 4 of 4): as the sequence (P29496 whole entry, stated change not applied, chain 4 of 4) above
MCM2-7, sequence (P53091 whole entry, chain 5 of 4): as the sequence (P53091 whole entry, stated change not applied, chain 5 of 4) above
MCM2-7, sequence (P38132 whole entry, chain 6 of 4): as the sequence (P38132 whole entry, stated change not applied, chain 6 of 4) above

Mcm3, sequence (P24279 whole entry): as the sequence (P24279 whole entry, chain 2 of 4) above

B1: Mcm2 (natural protein)
chain: MSDNRRRRREEDDSDSENELPPSSPQQHFRGGMNPVSSPIGSPDMINPEGDDNEVDDVPDIDEVEEQMNEVDLMDDNMYEDYAADHNRDRYDPDQVDDREQQELSLSERRRIDAQLNERDRLLRNVAYIDDEDEEQEGAAQLDEMGLPVQRRRRRRQYEDLENSDDDLLSDMDIDPLREELTLESLSNVKANSYSEWITQPNVSRTIARELKSFLLEYTDETGRSVYGARIRTLGEMNSESLEVNYRHLAESKAILALFLAKCPEEMLKIFDLVAMEATELHYPDYARIHSEIHVRISDFPTIYSLRELRESNLSSLVRVTGVVTRRTGVFPQLKYVKFNCLKCGSILGPFFQDSNEEIRISFCTNCKSKGPFRVNGEKTVYRNYQRVTLQEAPGTVPPGRLPRHREVILLADLVDVSKPGEEVEVTGIYKNNYDGNLNAKNGFPVFATIIEANSIKRREGNTANEGEEGLDVFSWTEEEEREFRKISRDRGIIDKIISSMAPSIYGHRDIKTAVACSLFGGVPKNVNGKHSIRGDINVLLLGDPGTAKSQILKYVEKTAHRAVFATGQGASAVGLTASVRKDPITKEWTLEGGALVLADKGVCLIDEFDKMNDQDRTSIHEAMEQQSISISKAGIVTTLQARCSIIAAANPNGGRYNSTLPLAQNVSLTEPILSRFDILCVVRDLVDEEADERLATFVVDSHVRSHPENDEDREGEELKNNGESAIEQGEDEINEQLNARQRRLQRQRKKEEEISPIPQELLMKYIHYARTKIYPKLHQMDMDKVSRVYADLRRESISTGSFPITVRHLESILRIAESFAKMRLSEFVSSYDLDRAIKVVVDSFVDAQKVSVRRQLRRSFAIYTLGH
As for B1, the binding result in assay [1], in assay [2] and in assay [3] was “binds” throughout.

B2: MBP-Cdc6 (natural protein)
chain: MSAIPITPTKRIRRNLFDDAPATPPRPLKRKKLQFTDVTPESSPEKLQFGSQSIFLRTKALLQKSSELVNLNSSDGALPARTAEYEQVMNFLAKAISEHRSDSLYITGPPGTGKTAQLDMIIRQKFQSLPLSLSTPRSKDVLRHTNPNLQNLSWFELPDGRLESVAVTSINCISLGEPSSIFQKIFDSFQDLNGPTLQIKNMQHLQKFLEPYHKKTTFVVVLDEMDRLLHANTSETQSVRTILELFLLAKLPTVSFVLIGMANSLDMKDRFLSRLNLDRGLLPQTIVFQPYTAEQMYEIVIQKMSSLPTIIFQPMAIKFAAKKCAGNTGDLRKLFDVLRGSIEIYELEKRFLLSPTRGSLNSAQVPLTPTTSPVKKSYPEPQGKIGLNYIAKVFSKFVNNNSTRTRIAKLNIQQKLILCTIIQSLKLNSDATIDESFDHYIKAITKTDTLAPLQRNEFLEICTILETCGLVSIKKTKCKGKTKRFVDKIDVDLDMREFYDEMTKISILKPFLH
As to B2, the binding result in assay [4] and in assay [5] was “binds” each time.

The record behind these values is article PMC3735830 (Nature structural & molecular biology, 2013).
